Results taken from doi:10.1101/2025.11.21.689678 (bioRxiv, 2025).

Biological target: MBP-MAGEA6 (human (cDNA from A549 cells), UniProt P43360 1-314)
Assay: pull-down

Chain of MBP-MAGEA6 (P43360 whole entry): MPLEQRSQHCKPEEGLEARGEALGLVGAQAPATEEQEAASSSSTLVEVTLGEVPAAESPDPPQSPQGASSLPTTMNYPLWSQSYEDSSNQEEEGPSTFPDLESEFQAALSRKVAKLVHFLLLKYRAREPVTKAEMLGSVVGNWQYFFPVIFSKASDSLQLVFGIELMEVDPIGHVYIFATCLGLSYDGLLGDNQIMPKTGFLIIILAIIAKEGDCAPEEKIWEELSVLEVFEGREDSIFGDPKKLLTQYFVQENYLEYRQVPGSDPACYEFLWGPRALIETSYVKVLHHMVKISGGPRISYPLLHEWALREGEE

binding result: binds
B1: His-Flag-ALKBH2 (natural protein, human, UniProt Q6NS38 1-261, looked up)
chain: MDRFLVKGAQGGLLRKQEEQEPTGEEPAVLGGDKESTRKRPRREAPGNGGHSAGPSWRHIRAEGLDCSYTVLFGKAEADEIFQELEKEVEYFTGALARVQVFGKWHSVPRKQATYGDAGLTYTFSGLTLSPKPWIPVLERIRDHVSGVTGQTFNFVLINRYKDGCDHIGEHRDDERELAPGSPIASVSFGACRDFVFRHKDSRGKSPSRRVAVVRLPLAHGSLLMMNHPTNTHWYHSLPVRKKVLAPRVNLTFRKILLTKK
